B1: H-PS-S(O-octyl)-FLSPEHSRVSSRKESKSPPAKLSPR-NH2 (peptide)
peptide: H-PSS(Octyl)FLSPEHSRVSSRKESKSPPAKLSPR-NH2
SMILES: CCCCCCCCOC[C@H](NC(=O)[C@H](CO)NC(=O)[C@@H]1CCCN1)C(=O)N[C@@H](Cc1ccccc1)C(=O)N[C@@H](CC(C)C)C(=O)N[C@@H](CO)C(=O)N1CCC[C@H]1C(=O)N[C@@H](CCC(=O)O)C(=O)N[C@@H](Cc1c[nH]cn1)C(=O)N[C@@H](CO)C(=O)N[C@@H](CCCNC(=N)N)C(=O)N[C@H](C(=O)N[C@@H](CO)C(=O)N[C@@H](CO)C(=O)N[C@@H](CCCNC(=N)N)C(=O)N[C@@H](CCCCN)C(=O)N[C@@H](CCC(=O)O)C(=O)N[C@@H](CO)C(=O)N[C@@H](CCCCN)C(=O)N[C@@H](CO)C(=O)N1CCC[C@H]1C(=O)N1CCC[C@H]1C(=O)N[C@@H](C)C(=O)N[C@@H](CCCCN)C(=O)N[C@@H](CC(C)C)C(=O)N[C@@H](CO)C(=O)N1CCC[C@H]1C(=O)N[C@@H](CCCNC(=N)N)C(N)=O)C(C)C
B2: H-PS-S(O-octyl)-FLSPEHSRPSSR-NH2 (peptide)
peptide: H-PSS(Octyl)FLSPEHSRPSSR-NH2
SMILES: CCCCCCCCOC[C@H](NC(=O)[C@H](CO)NC(=O)[C@@H]1CCCN1)C(=O)N[C@@H](Cc1ccccc1)C(=O)N[C@@H](CC(C)C)C(=O)N[C@@H](CO)C(=O)N1CCC[C@H]1C(=O)N[C@@H](CCC(=O)O)C(=O)N[C@@H](Cc1c[nH]cn1)C(=O)N[C@@H](CO)C(=O)N[C@@H](CCCNC(=N)N)C(=O)N1CCC[C@H]1C(=O)N[C@@H](CO)C(=O)N[C@@H](CO)C(=O)N[C@@H](CCCNC(=N)N)C(N)=O
B3: H-PS-S(O-octyl)-FLSPEHSRVSSRPESSSPPAKLSPR-NH2 (peptide)
peptide: H-PSS(Octyl)FLSPEHSRVSSRPESSSPPAKLSPR-NH2
SMILES: CCCCCCCCOC[C@H](NC(=O)[C@H](CO)NC(=O)[C@@H]1CCCN1)C(=O)N[C@@H](Cc1ccccc1)C(=O)N[C@@H](CC(C)C)C(=O)N[C@@H](CO)C(=O)N1CCC[C@H]1C(=O)N[C@@H](CCC(=O)O)C(=O)N[C@@H](Cc1c[nH]cn1)C(=O)N[C@@H](CO)C(=O)N[C@@H](CCCNC(=N)N)C(=O)N[C@H](C(=O)N[C@@H](CO)C(=O)N[C@@H](CO)C(=O)N[C@@H](CCCNC(=N)N)C(=O)N1CCC[C@H]1C(=O)N[C@@H](CCC(=O)O)C(=O)N[C@@H](CO)C(=O)N[C@@H](CO)C(=O)N[C@@H](CO)C(=O)N1CCC[C@H]1C(=O)N1CCC[C@H]1C(=O)N[C@@H](C)C(=O)N[C@@H](CCCCN)C(=O)N[C@@H](CC(C)C)C(=O)N[C@@H](CO)C(=O)N1CCC[C@H]1C(=O)N[C@@H](CCCNC(=N)N)C(N)=O)C(C)C
B4: H-PS-S(O-octyl)-FLSPEHQRVQQRKES-K(hexadecanoyl-isoGlu)-KPPAKLQPR-NH2 (peptide)
peptide: H-PSS(Octyl)FLSPEHQRVQQRKESK([γGlu-Palmitoyl])KPPAKLQPR-NH2
SMILES: CCCCCCCCCCCCCCCC(=O)N[C@@H](CCC(=O)NCCCC[C@H](NC(=O)[C@H](CO)NC(=O)[C@H](CCC(=O)O)NC(=O)[C@H](CCCCN)NC(=O)[C@H](CCCNC(=N)N)NC(=O)[C@H](CCC(N)=O)NC(=O)[C@H](CCC(N)=O)NC(=O)[C@@H](NC(=O)[C@H](CCCNC(=N)N)NC(=O)[C@H](CCC(N)=O)NC(=O)[C@H](Cc1c[nH]cn1)NC(=O)[C@H](CCC(=O)O)NC(=O)[C@@H]1CCCN1C(=O)[C@H](CO)NC(=O)[C@H](CC(C)C)NC(=O)[C@H](Cc1ccccc1)NC(=O)[C@H](COCCCCCCCC)NC(=O)[C@H](CO)NC(=O)[C@@H]1CCCN1)C(C)C)C(=O)N[C@@H](CCCCN)C(=O)N1CCC[C@H]1C(=O)N1CCC[C@H]1C(=O)N[C@@H](C)C(=O)N[C@@H](CCCCN)C(=O)N[C@@H](CC(C)C)C(=O)N[C@@H](CCC(N)=O)C(=O)N1CCC[C@H]1C(=O)N[C@@H](CCCNC(=N)N)C(N)=O)C(=O)O
B5: H-PS-S(O-octyl)-FLSPEHSRPSSRPESSSPPAKLSPR-NH2 (peptide)
peptide: H-PSS(Octyl)FLSPEHSRPSSRPESSSPPAKLSPR-NH2
SMILES: CCCCCCCCOC[C@H](NC(=O)[C@H](CO)NC(=O)[C@@H]1CCCN1)C(=O)N[C@@H](Cc1ccccc1)C(=O)N[C@@H](CC(C)C)C(=O)N[C@@H](CO)C(=O)N1CCC[C@H]1C(=O)N[C@@H](CCC(=O)O)C(=O)N[C@@H](Cc1c[nH]cn1)C(=O)N[C@@H](CO)C(=O)N[C@@H](CCCNC(=N)N)C(=O)N1CCC[C@H]1C(=O)N[C@@H](CO)C(=O)N[C@@H](CO)C(=O)N[C@@H](CCCNC(=N)N)C(=O)N1CCC[C@H]1C(=O)N[C@@H](CCC(=O)O)C(=O)N[C@@H](CO)C(=O)N[C@@H](CO)C(=O)N[C@@H](CO)C(=O)N1CCC[C@H]1C(=O)N1CCC[C@H]1C(=O)N[C@@H](C)C(=O)N[C@@H](CCCCN)C(=O)N[C@@H](CC(C)C)C(=O)N[C@@H](CO)C(=O)N1CCC[C@H]1C(=O)N[C@@H](CCCNC(=N)N)C(N)=O
B6: H-PS-S(octanoyl)-FLSPEHQSVQQRKESKKPPAKLQPR-NH2 (peptide)
peptide: H-PSS(Octanoyl)FLSPEHQSVQQRKESKKPPAKLQPR-NH2
SMILES: CCCCCCCC(=O)OC[C@H](NC(=O)[C@H](CO)NC(=O)[C@@H]1CCCN1)C(=O)N[C@@H](Cc1ccccc1)C(=O)N[C@@H](CC(C)C)C(=O)N[C@@H](CO)C(=O)N1CCC[C@H]1C(=O)N[C@@H](CCC(=O)O)C(=O)N[C@@H](Cc1c[nH]cn1)C(=O)N[C@@H](CCC(N)=O)C(=O)N[C@@H](CO)C(=O)N[C@H](C(=O)N[C@@H](CCC(N)=O)C(=O)N[C@@H](CCC(N)=O)C(=O)N[C@@H](CCCNC(=N)N)C(=O)N[C@@H](CCCCN)C(=O)N[C@@H](CCC(=O)O)C(=O)N[C@@H](CO)C(=O)N[C@@H](CCCCN)C(=O)N[C@@H](CCCCN)C(=O)N1CCC[C@H]1C(=O)N1CCC[C@H]1C(=O)N[C@@H](C)C(=O)N[C@@H](CCCCN)C(=O)N[C@@H](CC(C)C)C(=O)N[C@@H](CCC(N)=O)C(=O)N1CCC[C@H]1C(=O)N[C@@H](CCCNC(=N)N)C(N)=O)C(C)C
B7: H-PS-S(O-octyl)-FLSPEHSRVSSRKESSKPPAKLSPR-NH2 (peptide)
peptide: H-PSS(Octyl)FLSPEHSRVSSRKESSKPPAKLSPR-NH2
SMILES: CCCCCCCCOC[C@H](NC(=O)[C@H](CO)NC(=O)[C@@H]1CCCN1)C(=O)N[C@@H](Cc1ccccc1)C(=O)N[C@@H](CC(C)C)C(=O)N[C@@H](CO)C(=O)N1CCC[C@H]1C(=O)N[C@@H](CCC(=O)O)C(=O)N[C@@H](Cc1c[nH]cn1)C(=O)N[C@@H](CO)C(=O)N[C@@H](CCCNC(=N)N)C(=O)N[C@H](C(=O)N[C@@H](CO)C(=O)N[C@@H](CO)C(=O)N[C@@H](CCCNC(=N)N)C(=O)N[C@@H](CCCCN)C(=O)N[C@@H](CCC(=O)O)C(=O)N[C@@H](CO)C(=O)N[C@@H](CO)C(=O)N[C@@H](CCCCN)C(=O)N1CCC[C@H]1C(=O)N1CCC[C@H]1C(=O)N[C@@H](C)C(=O)N[C@@H](CCCCN)C(=O)N[C@@H](CC(C)C)C(=O)N[C@@H](CO)C(=O)N1CCC[C@H]1C(=O)N[C@@H](CCCNC(=N)N)C(N)=O)C(C)C
B8: H-PS-S(octanoyl)-FLSPEHQRVQQSKESKKPPAKLQPR-NH2 (peptide)
peptide: H-PSS(Octanoyl)FLSPEHQRVQQSKESKKPPAKLQPR-NH2
SMILES: CCCCCCCC(=O)OC[C@H](NC(=O)[C@H](CO)NC(=O)[C@@H]1CCCN1)C(=O)N[C@@H](Cc1ccccc1)C(=O)N[C@@H](CC(C)C)C(=O)N[C@@H](CO)C(=O)N1CCC[C@H]1C(=O)N[C@@H](CCC(=O)O)C(=O)N[C@@H](Cc1c[nH]cn1)C(=O)N[C@@H](CCC(N)=O)C(=O)N[C@@H](CCCNC(=N)N)C(=O)N[C@H](C(=O)N[C@@H](CCC(N)=O)C(=O)N[C@@H](CCC(N)=O)C(=O)N[C@@H](CO)C(=O)N[C@@H](CCCCN)C(=O)N[C@@H](CCC(=O)O)C(=O)N[C@@H](CO)C(=O)N[C@@H](CCCCN)C(=O)N[C@@H](CCCCN)C(=O)N1CCC[C@H]1C(=O)N1CCC[C@H]1C(=O)N[C@@H](C)C(=O)N[C@@H](CCCCN)C(=O)N[C@@H](CC(C)C)C(=O)N[C@@H](CCC(N)=O)C(=O)N1CCC[C@H]1C(=O)N[C@@H](CCCNC(=N)N)C(N)=O)C(C)C
B9: H-PS-S(O-octyl)-FLSPEHSRVSSRKESSSPPAKLSPR-NH2 (peptide)
peptide: H-PSS(Octyl)FLSPEHSRVSSRKESSSPPAKLSPR-NH2
SMILES: CCCCCCCCOC[C@H](NC(=O)[C@H](CO)NC(=O)[C@@H]1CCCN1)C(=O)N[C@@H](Cc1ccccc1)C(=O)N[C@@H](CC(C)C)C(=O)N[C@@H](CO)C(=O)N1CCC[C@H]1C(=O)N[C@@H](CCC(=O)O)C(=O)N[C@@H](Cc1c[nH]cn1)C(=O)N[C@@H](CO)C(=O)N[C@@H](CCCNC(=N)N)C(=O)N[C@H](C(=O)N[C@@H](CO)C(=O)N[C@@H](CO)C(=O)N[C@@H](CCCNC(=N)N)C(=O)N[C@@H](CCCCN)C(=O)N[C@@H](CCC(=O)O)C(=O)N[C@@H](CO)C(=O)N[C@@H](CO)C(=O)N[C@@H](CO)C(=O)N1CCC[C@H]1C(=O)N1CCC[C@H]1C(=O)N[C@@H](C)C(=O)N[C@@H](CCCCN)C(=O)N[C@@H](CC(C)C)C(=O)N[C@@H](CO)C(=O)N1CCC[C@H]1C(=O)N[C@@H](CCCNC(=N)N)C(N)=O)C(C)C
B10: H-PS-Dap(N-octanoyl)-FLSPEHSRVSSRKES-K(hexadecanoyl-isoGlu)-KPPA-NH2 (peptide)
peptide: H-PS[Dap](Octanoyl)FLSPEHSRVSSRKESK([γGlu-Palmitoyl])KPPA-NH2
SMILES: CCCCCCCCCCCCCCCC(=O)N[C@@H](CCC(=O)NCCCC[C@H](NC(=O)[C@H](CO)NC(=O)[C@H](CCC(=O)O)NC(=O)[C@H](CCCCN)NC(=O)[C@H](CCCNC(=N)N)NC(=O)[C@H](CO)NC(=O)[C@H](CO)NC(=O)[C@@H](NC(=O)[C@H](CCCNC(=N)N)NC(=O)[C@H](CO)NC(=O)[C@H](Cc1c[nH]cn1)NC(=O)[C@H](CCC(=O)O)NC(=O)[C@@H]1CCCN1C(=O)[C@H](CO)NC(=O)[C@H](CC(C)C)NC(=O)[C@H](Cc1ccccc1)NC(=O)[C@H](CNC(=O)CCCCCCC)NC(=O)[C@H](CO)NC(=O)[C@@H]1CCCN1)C(C)C)C(=O)N[C@@H](CCCCN)C(=O)N1CCC[C@H]1C(=O)N1CCC[C@H]1C(=O)N[C@@H](C)C(N)=O)C(=O)O

*1 amine or outer side, *2 acyl side, *3 side chain or, on linkers, in order; H or OH if unused. Side-chain parts run from the residue outwards. [ ]: non-standard residue; d: D form. The star is where a group is joined. γGlu = O=C(O)[C@H](CCC(=O)[*:2])N[*:1]; Palmitoyl = CCCCCCCCCCCCCCCC(=O)*; Octanoyl = CCCCCCCC(=O)*; Dap = NC[C@H](N)C(=O)O; Octyl = CCCCCCCC*

human growth hormone secretagogue receptor type 1a, sequence (Q92847 whole entry): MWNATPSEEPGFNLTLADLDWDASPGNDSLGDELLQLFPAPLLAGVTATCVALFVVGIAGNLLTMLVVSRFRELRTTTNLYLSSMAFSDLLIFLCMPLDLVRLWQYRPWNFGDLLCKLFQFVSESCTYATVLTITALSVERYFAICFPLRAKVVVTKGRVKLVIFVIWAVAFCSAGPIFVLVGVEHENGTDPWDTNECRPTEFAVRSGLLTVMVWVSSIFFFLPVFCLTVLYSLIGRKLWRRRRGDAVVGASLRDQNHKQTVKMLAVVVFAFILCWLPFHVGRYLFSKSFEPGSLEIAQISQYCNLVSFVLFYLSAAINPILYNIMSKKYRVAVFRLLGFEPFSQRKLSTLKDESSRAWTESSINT

This assay has as its target human growth hormone secretagogue receptor type 1a (human, UniProt Q92847 1-366). The assay can be described thus: cell-based or functional assay.
Regarding B1, the “EC50 (nM); Ca2+ induction in HEK293 cells stably expressing the human ghrelin receptor” value (shortened to “EC50 (nM); Ca2+ induction”) worked out at 0.296 nM. Take B2: the “EC50 (nM); Ca2+ induction” value was determined as 0.341 nM. Under B3 stands 0.525 nM. On to B4, for which the “EC50 (nM); Ca2+ induction” value turned out to be 0.496 nM. On to B5, for which the “EC50 (nM); Ca2+ induction” value was determined as 0.642 nM. With H-PSS(Octanoyl)FLSPEHQRVQQRKESKKPPAKLQPR-OH [H-PS-S(O-octanoyl)-FLSPEHQRVQQRKESKKPPAKLQPR-OH], the “EC50 (nM); Ca2+ induction” value was 0.298 nM. Regarding B6, the “EC50 (nM); Ca2+ induction” value amounted to 0.149 nM. Regarding B7, the “EC50 (nM); Ca2+ induction” value stood at 0.359 nM. Take B8: the “EC50 (nM); Ca2+ induction” value came out at 0.168 nM. B9: the “EC50 (nM); Ca2+ induction” value was 0.454 nM.

As for B10, the “EC50 (nM); Ca2+ induction” value worked out at 0.566 nM.
